Test results taken from doi:10.1101/2023.04.27.538407.

Key:
[1] = molecular target: MYPT1 (endogenous, human platelets) (human (endogenous in platelets)); test: proximity ligation
[2] = molecular target: MYPT1-C2 peptide 35, R693 replaced by alanine (human); test: peptide or protein array
[3] = molecular target: MYPT1-C2 peptide 35, R694 replaced by alanine (human); test: peptide or protein array
[4] = molecular target: MYPT1-C2 peptide 35, S695 replaced by alanine (human); test: peptide or protein array

Chain of MYPT1 (endogenous, human platelets) (human (endogenous in platelets)) (O14974 whole entry): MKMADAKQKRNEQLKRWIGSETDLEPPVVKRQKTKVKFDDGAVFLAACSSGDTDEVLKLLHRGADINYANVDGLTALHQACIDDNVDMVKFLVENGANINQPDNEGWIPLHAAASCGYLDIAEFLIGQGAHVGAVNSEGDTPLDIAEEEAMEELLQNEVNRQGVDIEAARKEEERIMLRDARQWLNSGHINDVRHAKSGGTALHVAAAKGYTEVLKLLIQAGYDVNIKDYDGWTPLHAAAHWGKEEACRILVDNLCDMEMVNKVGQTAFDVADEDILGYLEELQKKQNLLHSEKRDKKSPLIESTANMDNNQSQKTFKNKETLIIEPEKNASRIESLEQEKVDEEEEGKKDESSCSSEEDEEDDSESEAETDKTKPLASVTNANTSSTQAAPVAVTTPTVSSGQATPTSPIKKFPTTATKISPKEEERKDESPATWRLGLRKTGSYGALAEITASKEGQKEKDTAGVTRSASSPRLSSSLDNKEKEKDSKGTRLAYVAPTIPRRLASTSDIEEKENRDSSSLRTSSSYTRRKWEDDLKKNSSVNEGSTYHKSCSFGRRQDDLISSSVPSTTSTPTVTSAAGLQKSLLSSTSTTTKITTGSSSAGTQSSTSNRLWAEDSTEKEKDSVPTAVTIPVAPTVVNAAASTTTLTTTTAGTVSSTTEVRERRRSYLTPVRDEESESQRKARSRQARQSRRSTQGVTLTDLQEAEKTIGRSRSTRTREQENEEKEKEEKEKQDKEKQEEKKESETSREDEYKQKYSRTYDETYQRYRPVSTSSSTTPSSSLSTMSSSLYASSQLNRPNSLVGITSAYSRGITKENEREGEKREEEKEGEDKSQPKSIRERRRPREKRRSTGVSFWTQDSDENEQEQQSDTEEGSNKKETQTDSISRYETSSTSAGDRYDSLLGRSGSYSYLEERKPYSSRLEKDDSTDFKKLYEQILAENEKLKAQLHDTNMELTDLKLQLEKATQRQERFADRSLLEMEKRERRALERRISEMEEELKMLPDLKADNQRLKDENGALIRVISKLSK

Substance | PLA dots per platelet (dots per platelet) [1] | reduction of binding against the non-mutated peptide [2] [%] | reduction of binding against the non-mutated peptide [3] [%] | reduction of binding against the non-mutated peptide [4] [%]
PKA-RIIα (endogenous, human platelets) (from UniProt P13861 1-404) (natural protein) | 1.01 | – | – | –
PKA-RI (endogenous, human platelets) (from UniProt P10644 1-381) (natural protein) | 1.48 | – | – | –
His-tagged PKA-RIβ (from UniProt P31321 1-381) (natural protein) | – | 50 | 50 | 50
PKA-RIIβ (endogenous, human platelets) (from UniProt P31323 1-418) (natural protein) | 0.97 | – | – | –
His-tagged PKA-RIIβ (from UniProt P31323 1-418) (natural protein) | – | 50 | 50 | 50
